Test results reported in patent US20260242478A1 (published 2026).
Where no end group is shown, it is not given here.

Columns and labels:
[1] = target: T1, Anti-CD28 Fab (SEQ ID NOs: 696, 697); experiment: phage ELISA on anti-CD28 Fab pre-incubated with CD28 antigen as competitor, anti-M13 HRP detection
T1 construct: In the phage ELISA the Fab was biotinylated and captured on neutravidin coated plates
T1 sequence (VH, as listed by the source, chain 1 of 2): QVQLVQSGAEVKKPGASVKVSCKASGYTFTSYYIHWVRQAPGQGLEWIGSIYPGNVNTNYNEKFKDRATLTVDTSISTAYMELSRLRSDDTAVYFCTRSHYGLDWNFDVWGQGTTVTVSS
T1 sequence (VL, as listed by the source, chain 2 of 2): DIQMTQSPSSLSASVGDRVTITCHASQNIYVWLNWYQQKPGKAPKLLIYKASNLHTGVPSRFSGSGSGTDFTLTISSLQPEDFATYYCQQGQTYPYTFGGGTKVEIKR

[2] = target: T1, Anti-CD28 Fab (SEQ ID NOs: 696, 697); experiment: phage ELISA; biotinylated anti-CD28 Fab on neutravidin plate, clonal phage supernatant, anti-M13 HRP detection;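 note: crude supernatants of single phage clones picked after panning were screened for binding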
[3] = target: T2, Anti-CD28 Fab (SEQ ID NOs: 696, 697); experiment: phage ELISA; Fab-coated wells pre-incubated with CD28 antigen as competitor, anti-M13 HRP detection;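 note: crude clonal phage supernatants screened by ELISA, comparing wells pre-treated with CD28 antigen in blocker against wells given blocker only, bound phage read via HRP-linked anti-M13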
T2 construct: In the phage ELISA the Fab was biotinylated and captured on neutravidin coated plates
T2 sequence (VH, as listed by the source, chain 1 of 2): as the sequence (VH, as listed by the source, chain 1 of 2) above
T2 sequence (VL, as listed by the source, chain 2 of 2): as the sequence (VL, as listed by the source, chain 2 of 2) above
Method: (§1) After panning, phage infected bacteria were plated out and colonies picked into 96 well blocks. Clonal phage was then amplified and separated from bacterial cells via centrifugation.
(§2) Clonal phage were harvested as crude supematants and screened via standard ELISAs. […] Prior to the addition of clonal phage, wells were incubated with blocking buffer and CD28 antigen or blocking buffer alone. Without washing or aspirating, clonal phage supematants were then added to the wells and incubated for a short time. Wells were then washed followed by detection of bound phage using a horse radish conjugated anti-M13 antibody. Clonal phage of interest were then sent for sequence analysis.

[4] = target: T2, Anti-CD28 Fab (SEQ ID NOs: 696, 697); experiment: phage ELISA; biotinylated anti-CD28 Fab on neutravidin plate, clonal phage supernatant, anti-M13 HRP detection; remark: listed apart in the source;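 note: crude supernatants of single phage clones picked after panning were screened for binding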
[5] = target: T3, Anti-CD28 Fab (SEQ ID NOs: 696, 697); experiment: phage binding ELISA on anti-CD28 Fab plate; competitor: CD28 antigen pre-incubated in the wells
T3 construct: The Fab was biotinylated and captured on neutravidin coated plates in the phage ELISA
T3 sequence (VH, as listed by the source, chain 1 of 2): as the sequence (VH, as listed by the source, chain 1 of 2) above
T3 sequence (VL, as listed by the source, chain 2 of 2): as the sequence (VL, as listed by the source, chain 2 of 2) above
Method: as §1, §2

[6] = target: T3, Anti-CD28 Fab (SEQ ID NOs: 696, 697); experiment: phage binding ELISA; biotinylated anti-CD28 Fab on neutravidin plate, bound phage detected with anti-M13 HRP;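 note: crude supernatants of clonal phage screened, wells pretreated with blocking buffer with or without CD28 antigen before brief phage incubation, washed, then bound phage detected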
[7] = target: Anti-CD28 Fab (SEQ ID NOs: 696, 697); experiment: phage binding ELISA on anti-CD28 Fab; wells first incubated with CD28 antigen as competitor
Target sequence in this assay (VH, as listed by the source, chain 1 of 2): as the sequence (VH, as listed by the source, chain 1 of 2) above
Target sequence in this assay (VL, as listed by the source, chain 2 of 2): as the sequence (VL, as listed by the source, chain 2 of 2) above
Method: as §1, §2

[8] = target: Anti-CD28 Fab (SEQ ID NOs: 696, 697); experiment: phage binding ELISA; biotinylated anti-CD28 Fab on neutravidin plate, clonal phage supernatant, anti-M13 HRP detection
Target sequence in this assay (VH, as listed by the source, chain 1 of 2): as the sequence (VH, as listed by the source, chain 1 of 2) above
Target sequence in this assay (VL, as listed by the source, chain 2 of 2): as the sequence (VL, as listed by the source, chain 2 of 2) above
Method: as §1, §2

[9] = target: Anti-CD28 Fab (SEQ ID NOs: 696, 697); experiment: phage binding ELISA; captured anti-CD28 Fab pre-incubated with CD28 antigen as competitor, anti-M13 HRP detection
Target sequence in this assay (VH, as listed by the source, chain 1 of 2): as the sequence (VH, as listed by the source, chain 1 of 2) above
Target sequence in this assay (VL, as listed by the source, chain 2 of 2): as the sequence (VL, as listed by the source, chain 2 of 2) above

[10] = target: Anti-CD28 Fab (SEQ ID NOs: 696, 697); experiment: phage binding ELISA; biotinylated anti-CD28 Fab on neutravidin plate, clonal phage supernatant, anti-M13 HRP detection; remark: listed apart in the source
Method: as §1, §2

B1: Phage-764 (peptide)
peptide: YCDGHLKEYMAKCL
notes: Tested as clonal phage supernatant
[1]
  Phage binding ELISA, Anti-CD28 Fab signal in the presence of CD28: 0.07
[2]
  Phage binding ELISA, Anti-CD28 Fab signal: 1.9

B2: Phage-745 (peptide)
peptide: YCEGHSMEYMAKCL
notes: tested as crude clonal phage supernatant
[3]
  Anti-CD28 Fab signal in the presence of CD28 (phage binding ELISA): 0.07
[4]
  Anti-CD28 Fab signal (phage binding ELISA): 1.92

B3: Phage-754 (peptide)
peptide: YCEGHSEEYMSKCL
notes: as for B1
[5]
  Anti-CD28 Fab signal in the presence of CD28: 0.07
[6]
  Anti-CD28 Fab (SEQ ID NOs: 696, 697) signal: 1.91

B4: Phage-750 (peptide)
peptide: YCEGHLAQYMWKCL
notes: as for B1
[5]
  Anti-CD28 Fab signal in the presence of CD28: 0.12
[6]
  Anti-CD28 Fab (SEQ ID NOs: 696, 697) signal: 1.91

B5: Phage-758 (peptide)
peptide: YCDGHEPQYLEKCL
notes: as for B1
[5]
  Anti-CD28 Fab signal in the presence of CD28: 0.08
[6]
  Anti-CD28 Fab (SEQ ID NOs: 696, 697) signal: 1.9

B6: Phage-741 (peptide)
peptide: YCMGHQPEYMQKCL
notes: as for B2
[3]
  Anti-CD28 Fab signal in the presence of CD28 (phage binding ELISA): 0.08
[4]
  Anti-CD28 Fab signal (phage binding ELISA): 1.93

B7: Phage-756 (peptide)
peptide: YCDGHAPEYMKKCL
notes: as for B1
[5]
  Anti-CD28 Fab signal in the presence of CD28: 0.06
[6]
  Anti-CD28 Fab (SEQ ID NOs: 696, 697) signal: 1.9

B8: Phage-761 (peptide)
peptide: YCAGHLEEYMDKCL
notes: as for B1
[5]
  Anti-CD28 Fab signal in the presence of CD28: 0.06
[6]
  Anti-CD28 Fab (SEQ ID NOs: 696, 697) signal: 1.9

B9: Phage-751 (peptide)
peptide: YCEGHLAVYMQKCL
notes: as for B1
[5]
  Anti-CD28 Fab signal in the presence of CD28: 0.1
[6]
  Anti-CD28 Fab (SEQ ID NOs: 696, 697) signal: 1.91

B10: Phage-729 (peptide)
peptide: YCDGHSAEYMQKCL
[7]
  Anti-CD28 Fab signal in the presence of CD28: 0.07
[8]
  Anti-CD28 Fab signal (phage binding ELISA): 1.95

B11: Phage-735 (peptide)
peptide: YCEGHLPIYLSKCL
[7]
  Anti-CD28 Fab signal in the presence of CD28: 0.08
[8]
  Anti-CD28 Fab signal (phage binding ELISA): 1.94

B12: Phage-724 (peptide)
peptide: YCDGHLPEYLGKCL
[7]
  Anti-CD28 Fab signal in the presence of CD28: 0.08
[8]
  Anti-CD28 Fab signal (phage binding ELISA): 1.96

B13: Phage-743 (peptide)
peptide: YCDGHSAEYLAKCL
notes: as for B2
[3]
  Anti-CD28 Fab signal in the presence of CD28 (phage binding ELISA): 0.08
[4]
  Anti-CD28 Fab signal (phage binding ELISA): 1.93

B14: Phage-733 (peptide)
peptide: YCAGHLEIYMNKCL
[7]
  Anti-CD28 Fab signal in the presence of CD28: 0.07
[8]
  Anti-CD28 Fab signal (phage binding ELISA): 1.94

B15: Phage-748 (peptide)
peptide: YCDGHLNEYMEKCL
notes: as for B2
[3]
  Anti-CD28 Fab signal in the presence of CD28 (phage binding ELISA): 0.06
[4]
  Anti-CD28 Fab signal (phage binding ELISA): 1.91

B16: Phage-752 (peptide)
peptide: YCEGHSSEYMEKCL
notes: as for B1
[5]
  Anti-CD28 Fab signal in the presence of CD28: 0.06
[6]
  Anti-CD28 Fab (SEQ ID NOs: 696, 697) signal: 1.91

B17: Phage-728 (peptide)
peptide: YCDGHLIEYMYKCL
[7]
  Anti-CD28 Fab signal in the presence of CD28: 0.09
[8]
  Anti-CD28 Fab signal (phage binding ELISA): 1.95

B18: Phage-746 (peptide)
peptide: YCAGHMPEYIDKCL
notes: as for B2
[3]
  Anti-CD28 Fab signal in the presence of CD28 (phage binding ELISA): 0.06
[4]
  Anti-CD28 Fab signal (phage binding ELISA): 1.92

B19: Phage-753 (peptide)
peptide: YCDGHLDIYLAKCL
notes: as for B1
[5]
  Anti-CD28 Fab signal in the presence of CD28: 0.08
[6]
  Anti-CD28 Fab (SEQ ID NOs: 696, 697) signal: 1.91

B20: Phage-749 (peptide)
peptide: YCDGHLKEYQEKCL
notes: as for B1
[5]
  Anti-CD28 Fab signal in the presence of CD28: 0.09
[6]
  Anti-CD28 Fab (SEQ ID NOs: 696, 697) signal: 1.91

B21: Phage-740 (peptide)
peptide: YCMGHAPEYMEKCL
notes: as for B2
[3]
  Anti-CD28 Fab signal in the presence of CD28 (phage binding ELISA): 0.07
[4]
  Anti-CD28 Fab signal (phage binding ELISA): 1.93

B22: Phage-730 (peptide)
peptide: YCDGHLVEYMSKCL
[7]
  Anti-CD28 Fab signal in the presence of CD28: 0.08
[8]
  Anti-CD28 Fab signal (phage binding ELISA): 1.95

B23: Phage-727 (peptide)
peptide: YCDGHSSEYMIKCL
[7]
  Anti-CD28 Fab signal in the presence of CD28: 0.06
[8]
  Anti-CD28 Fab signal (phage binding ELISA): 1.95

B24: Phage-763 (peptide)
peptide: YCAGHLPQYIAKCL
notes: as for B1
[1]
  Phage binding ELISA, Anti-CD28 Fab signal in the presence of CD28: 0.09
[2]
  Phage binding ELISA, Anti-CD28 Fab signal: 1.9

B25: Phage-762 (peptide)
peptide: YCAGHAPQYMEKCL
notes: as for B1
[1]
  Phage binding ELISA, Anti-CD28 Fab signal in the presence of CD28: 0.08
[2]
  Phage binding ELISA, Anti-CD28 Fab signal: 1.9

B26: Phage-765 (peptide)
peptide: YCDGHRPEYMEKCL
notes: as for B1
[1]
  Phage binding ELISA, Anti-CD28 Fab signal in the presence of CD28: 0.06
[2]
  Phage binding ELISA, Anti-CD28 Fab signal: 1.9

B27: Phage-757 (peptide)
peptide: YCDGHSKEYMHKCL
notes: as for B1
[5]
  Anti-CD28 Fab signal in the presence of CD28: 0.07
[6]
  Anti-CD28 Fab (SEQ ID NOs: 696, 697) signal: 1.9

B28: Phage-731 (peptide)
peptide: YCEGHLSQYMEKCL
[7]
  Anti-CD28 Fab signal in the presence of CD28: 0.08
[8]
  Anti-CD28 Fab signal (phage binding ELISA): 1.95

B29: Phage-737 (peptide)
peptide: YCSGHAPEYMAKCL
notes: as for B2
[3]
  Anti-CD28 Fab signal in the presence of CD28 (phage binding ELISA): 0.06
[4]
  Anti-CD28 Fab signal (phage binding ELISA): 1.94

B30: Phage-760 (peptide)
peptide: YCDGHVEEYLYKCL
notes: as for B1
[5]
  Anti-CD28 Fab signal in the presence of CD28: 0.06
[6]
  Anti-CD28 Fab (SEQ ID NOs: 696, 697) signal: 1.9

B31: Phage-708 (peptide)
peptide: YCQGHLPEYMSKCL
modifications: cysteine pairing not given here; also: displayed on phage by fusion to pIII, pIII and linker sequence not given here
[9]
  Anti-CD28 Fab signal in the presence of CD28: 0.06
[10]
  Anti-CD28 Fab (SEQ ID NOs: 696, 697) signal: 2.01

B32: Phage-744 (peptide)
peptide: YCDGHSPEYMTKCL
notes: as for B2
[3]
  Anti-CD28 Fab signal in the presence of CD28 (phage binding ELISA): 0.07
[4]
  Anti-CD28 Fab signal (phage binding ELISA): 1.93

B33: Phage-755 (peptide)
peptide: YCDGHSQEYMWKCL
notes: as for B1
[5]
  Anti-CD28 Fab signal in the presence of CD28: 0.09
[6]
  Anti-CD28 Fab (SEQ ID NOs: 696, 697) signal: 1.9

B34: Phage-734 (peptide)
peptide: YCEGHLSEYMAKCL
[7]
  Anti-CD28 Fab signal in the presence of CD28: 0.2
[8]
  Anti-CD28 Fab signal (phage binding ELISA): 1.94

B35: Phage-766 (peptide)
peptide: YCDGHLPEYMGKCL
notes: as for B1
[1]
  Phage binding ELISA, Anti-CD28 Fab signal in the presence of CD28: 0.11
[2]
  Phage binding ELISA, Anti-CD28 Fab signal: 1.89

B36: Phage-742 (peptide)
peptide: YCDGHMPEYMEKCL
notes: as for B2
[3]
  Anti-CD28 Fab signal in the presence of CD28 (phage binding ELISA): 0.09
[4]
  Anti-CD28 Fab signal (phage binding ELISA): 1.93

B37: Phage-723 (peptide)
peptide: YCDGHLEQYRAKCL
[7]
  Anti-CD28 Fab signal in the presence of CD28: 0.08
[8]
  Anti-CD28 Fab signal (phage binding ELISA): 1.96

B38: Phage-759 (peptide)
peptide: YCDGHAEEYMSKCL
notes: as for B1
[5]
  Anti-CD28 Fab signal in the presence of CD28: 0.09
[6]
  Anti-CD28 Fab (SEQ ID NOs: 696, 697) signal: 1.9

B39: Phage-736 (peptide)
peptide: YCDGHASEYMWKCL
notes: as for B2
[3]
  Anti-CD28 Fab signal in the presence of CD28 (phage binding ELISA): 0.06
[4]
  Anti-CD28 Fab signal (phage binding ELISA): 1.94

B40: Phage-726 (peptide)
peptide: YCDGHSALYMWKCL
[7]
  Anti-CD28 Fab signal in the presence of CD28: 0.08
[8]
  Anti-CD28 Fab signal (phage binding ELISA): 1.96

B41: Phage-725 (peptide)
peptide: YCAGHSVEYMAKCL
[7]
  Anti-CD28 Fab signal in the presence of CD28: 0.08
[8]
  Anti-CD28 Fab signal (phage binding ELISA): 1.96

B42: Phage-738 (peptide)
peptide: YCEGHRAEYMEKCL
notes: as for B2
[3]
  Anti-CD28 Fab signal in the presence of CD28 (phage binding ELISA): 0.06
[4]
  Anti-CD28 Fab signal (phage binding ELISA): 1.93

B43: Phage-739 (peptide)
peptide: YCDGHSPDYIWKCL
notes: as for B2
[3]
  Anti-CD28 Fab signal in the presence of CD28 (phage binding ELISA): 0.1
[4]
  Anti-CD28 Fab signal (phage binding ELISA): 1.93

B44: Phage-747 (peptide)
peptide: YCAGHSPEFMEKCL
notes: as for B2
[3]
  Anti-CD28 Fab signal in the presence of CD28 (phage binding ELISA): 0.06
[4]
  Anti-CD28 Fab signal (phage binding ELISA): 1.91

B45: Phage-732 (peptide)
peptide: YCDGHSPEHIRKCL
[7]
  Anti-CD28 Fab signal in the presence of CD28: 0.11
[8]
  Anti-CD28 Fab signal (phage binding ELISA): 1.94
